The subject of data set [1] is native hexamer form of MRJP1.
The subject of data set [2] is monomeric form of royalactin.
The test system of data set [3] is MGO-modified MRJP (MRJP mixture treated with MGO).

Take Cathepsin B from bovine spleen: the “Cathepsin B digestion (data not shown)” value in data set [1] was “the native hexamer form of MRJP1 and the monomeric form of royalactin were readily degraded by this enzyme”; in data set [2], “the native hexamer form of MRJP1 and the monomeric form of royalactin were readily degraded by this enzyme”. In data set [3], the “Cathepsin B digestion, native PAGE” value is recorded as “Cathepsin B is unable to hydrolyze the protein at pH 7.0 but was able to hydrolyze the lower molecular weight species produced at pH 4.0”.
